Laboratory results as given in PMC2744881 (Journal of molecular biology, 2009).

B1: SufB of the purified SufB-SufC-SufD complex (natural protein, E. coli, UniProt P77522 1-495, looked up)
chain: MSRNTEATDDVKTWTGGPLNYKEGFFTQLATDELAKGINEEVVRAISAKRNEPEWMLEFRLNAYRAWLEMEEPHWLKAHYDKLNYQDYSYYSAPSCGNCDDTCASEPGAVQQTGANAFLSKEVEAAFEQLGVPVREGKEVAVDAIFDSVSVATTYREKLAEQGIIFCSFGEAIHDHPELVRKYLGTVVPGNDNFFAALNAAVASDGTFIYVPKGVRCPMELSTYFRINAEKTGQFERTILVADEDSYVSYIEGCSAPVRDSYQLHAAVVEVIIHKNAEVKYSTVQNWFPGDNNTGGILNFVTKRALCEGENSKMSWTQSETGSAITWKYPSCILRGDNSIGEFYSVALTSGHQQADTGTKMIHIGKNTKSTIISKGISAGHSQNSYRGLVKIMPTATNARNFTQCDSMLIGANCGAHTFPYVECRNNSAQLEHEATTSRIGEDQLFYCLQRGISEEDAISMIVNGFCKDVFSELPLEFAVEAQKLLAISLEHSVG

What was measured:
[1] = target: T1, SufD of the purified SufB-SufC-SufD complex (E. coli, UniProt P77689 1-423); assay: SEC
T1 sequence: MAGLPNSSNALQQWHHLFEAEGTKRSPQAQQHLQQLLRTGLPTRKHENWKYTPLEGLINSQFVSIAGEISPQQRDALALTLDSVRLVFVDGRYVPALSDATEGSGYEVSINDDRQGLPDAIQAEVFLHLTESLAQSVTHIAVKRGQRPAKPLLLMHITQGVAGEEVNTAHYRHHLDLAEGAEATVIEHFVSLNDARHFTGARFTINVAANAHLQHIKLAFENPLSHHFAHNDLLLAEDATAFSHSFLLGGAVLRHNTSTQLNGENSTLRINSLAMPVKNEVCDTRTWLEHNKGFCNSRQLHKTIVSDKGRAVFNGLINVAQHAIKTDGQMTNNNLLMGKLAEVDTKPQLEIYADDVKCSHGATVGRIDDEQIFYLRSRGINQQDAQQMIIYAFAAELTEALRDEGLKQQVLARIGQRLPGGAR

[2] = target: B1; assay: SEC
crystal structure = target: the molecule itself; assay: crystal structure
[3] = target: T2, N-terminally His10-tagged SufC protein (E. coli, UniProt P77499 1-248); assay: SEC
T2 sequence (looked up): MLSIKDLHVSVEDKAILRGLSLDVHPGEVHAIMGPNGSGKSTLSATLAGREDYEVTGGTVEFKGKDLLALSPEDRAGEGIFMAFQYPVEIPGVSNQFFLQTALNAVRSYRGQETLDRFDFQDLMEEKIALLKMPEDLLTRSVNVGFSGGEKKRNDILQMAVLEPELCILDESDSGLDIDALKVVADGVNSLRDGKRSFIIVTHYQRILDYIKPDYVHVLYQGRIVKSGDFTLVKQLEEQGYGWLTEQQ

SEC = target: the molecule itself; assay: SEC

Row | Binder | stoichiometry N [1] | stoichiometry N (SEC) | further results
1 | SufC of the purified SufB-SufC-SufD complex (natural protein, E. coli) MLSIKDLHVSVEDKAILRGLSLDVHPGEVHAIMGPNGSGKSTLSATLAGREDYEVTGGTVEFKGKDLLALSPEDRAGEGIFMAFQYPVEIPGVSNQFFLQTALNAVRSYRGQETLDRFDFQDLMEEKIALLKMPEDLLTRSVNVGFSGGEKKRNDILQMAVLEPELCILDESDSGLDIDALKVVADGVNSLRDGKRSFIIVTHYQRILDYIKPDYVHVLYQGRIVKSGDFTLVKQLEEQGYGWLTEQQ | ~2 |  | stoichiometry N [2]: ~2
2 | B1 | ~1 |  | 
3 | SufD protein (natural protein, E. coli, UniProt P77689 1-423, looked up) MAGLPNSSNALQQWHHLFEAEGTKRSPQAQQHLQQLLRTGLPTRKHENWKYTPLEGLINSQFVSIAGEISPQQRDALALTLDSVRLVFVDGRYVPALSDATEGSGYEVSINDDRQGLPDAIQAEVFLHLTESLAQSVTHIAVKRGQRPAKPLLLMHITQGVAGEEVNTAHYRHHLDLAEGAEATVIEHFVSLNDARHFTGARFTINVAANAHLQHIKLAFENPLSHHFAHNDLLLAEDATAFSHSFLLGGAVLRHNTSTQLNGENSTLRINSLAMPVKNEVCDTRTWLEHNKGFCNSRQLHKTIVSDKGRAVFNGLINVAQHAIKTDGQMTNNNLLMGKLAEVDTKPQLEIYADDVKCSHGATVGRIDDEQIFYLRSRGINQQDAQQMIIYAFAAELTEALRDEGLKQQVLARIGQRLPGGAR |  |  | stoichiometry N (crystal structure): 2; stoichiometry N [3]: ~1
4 | N-terminal His-tag SufD with H360S mutation (natural protein, E. coli) MAGLPNSSNALQQWHHLFEAEGTKRSPQAQQHLQQLLRTGLPTRKHENWKYTPLEGLINSQFVSIAGEISPQQRDALALTLDSVRLVFVDGRYVPALSDATEGSGYEVSINDDRQGLPDAIQAEVFLHLTESLAQSVTHIAVKRGQRPAKPLLLMHITQGVAGEEVNTAHYRHHLDLAEGAEATVIEHFVSLNDARHFTGARFTINVAANAHLQHIKLAFENPLSHHFAHNDLLLAEDATAFSHSFLLGGAVLRHNTSTQLNGENSTLRINSLAMPVKNEVCDTRTWLEHNKGFCNSRQLHKTIVSDKGRAVFNGLINVAQHAIKTDGQMTNNNLLMGKLAEVDTKPQLEIYADDVKCSSGATVGRIDDEQIFYLRSRGINQQDAQQMIIYAFAAELTEALRDEGLKQQVLARIGQRLPGGAR |  | 2 | 
5 | wild-type SufD (reference of the gel filtration of His-tagged SufD proteins) (natural protein, E. coli) MAGLPNSSNALQQWHHLFEAEGTKRSPQAQQHLQQLLRTGLPTRKHENWKYTPLEGLINSQFVSIAGEISPQQRDALALTLDSVRLVFVDGRYVPALSDATEGSGYEVSINDDRQGLPDAIQAEVFLHLTESLAQSVTHIAVKRGQRPAKPLLLMHITQGVAGEEVNTAHYRHHLDLAEGAEATVIEHFVSLNDARHFTGARFTINVAANAHLQHIKLAFENPLSHHFAHNDLLLAEDATAFSHSFLLGGAVLRHNTSTQLNGENSTLRINSLAMPVKNEVCDTRTWLEHNKGFCNSRQLHKTIVSDKGRAVFNGLINVAQHAIKTDGQMTNNNLLMGKLAEVDTKPQLEIYADDVKCSHGATVGRIDDEQIFYLRSRGINQQDAQQMIIYAFAAELTEALRDEGLKQQVLARIGQRLPGGAR |  | 2 | 
6 | N-terminal His-tag SufD with H360C mutation (natural protein, E. coli) MAGLPNSSNALQQWHHLFEAEGTKRSPQAQQHLQQLLRTGLPTRKHENWKYTPLEGLINSQFVSIAGEISPQQRDALALTLDSVRLVFVDGRYVPALSDATEGSGYEVSINDDRQGLPDAIQAEVFLHLTESLAQSVTHIAVKRGQRPAKPLLLMHITQGVAGEEVNTAHYRHHLDLAEGAEATVIEHFVSLNDARHFTGARFTINVAANAHLQHIKLAFENPLSHHFAHNDLLLAEDATAFSHSFLLGGAVLRHNTSTQLNGENSTLRINSLAMPVKNEVCDTRTWLEHNKGFCNSRQLHKTIVSDKGRAVFNGLINVAQHAIKTDGQMTNNNLLMGKLAEVDTKPQLEIYADDVKCSCGATVGRIDDEQIFYLRSRGINQQDAQQMIIYAFAAELTEALRDEGLKQQVLARIGQRLPGGAR |  | 2 | 
